In US12104178B2, “DHFR tunable protein regulation” (Obsidian Therapeutics, Inc., priority 2017, dated 2024):
Read-outs that look alike come from different tables or passages of the source.

Legend:
[1] = cited from earlier work; for Duration of action: in vivo
HCT-116 cells = experiment: DD regulated luciferase, western blot and luciferase activity; type: cell-based, human; conditions: 1 μM Shield-1 or 10 μM Trimethoprim, 24 h
From the text: DD regulated luciferase can be used to track cells in vivo e.g. T cells. Firefly luciferase or Renilla luciferase may be utilized as the payload. HCT-116 cells were stably transduced with the constitutive (OT-RLuc-001) or DD regulated constructs (OT-RLuc-002, OT-RLuc-003, OT-RLuc-004, OT-RLuc-005 and OT-RLuc-006). […] Blots were also probed with anti-GAPDH antibody to ensure uniform protein loading in all samples. […] (FIG. 59A).
Ligand dependent activity of Renilla and firefly luciferase constructs was measured using coelentrazine and luciferin substrates respectively. […] Luciferase activity was measured as luminescence reading using a luminometer and the values were compared to control samples consisting of lysis buffer and substrate.

HCT116 cells = experiment: Combination mutation analysis, TMP dose response MFI; type: cell-based, human
From the text: Mutations identified by random mutagenesis were combined with mutations identified by site directed mutagenesis.

Molecule | Luciferase stabilization by western blot (FIG. 59A) (HCT-116 cells) | MFI (HCT116 cells; DMSO, 48 h) | Stabilization ratio (HCT116 cells; TMP dose (log) −4) | MFI (HCT116 cells; TMP dose (log) −4, 48 h) | Stabilization ratio (HCT116 cells; TMP dose (log) −4.48) | MFI (HCT116 cells; TMP dose (log) −4.48, 48 h) | Stabilization ratio (HCT116 cells; TMP dose (log) −4.95) | MFI (HCT116 cells; TMP dose (log) −4.95, 48 h) | Stabilization ratio (HCT116 cells; TMP dose (log) −5.43) | MFI (HCT116 cells; TMP dose (log) −5.43, 48 h) | Stabilization ratio (HCT116 cells; TMP dose (log) −5.91) | MFI (HCT116 cells; TMP dose (log) −5.91, 48 h) | Stabilization ratio (HCT116 cells; TMP dose (log) −6.39) | MFI (HCT116 cells; TMP dose (log) −6.39, 48 h) | Stabilization ratio (HCT116 cells; TMP dose (log) −6.86) | MFI (HCT116 cells; TMP dose (log) −6.86, 48 h) | also measured
CN(Cc1cnc2nc(N)nc(N)c2n1)c1ccc(C(=O)N[C@@H](CCC(=O)O)C(=O)O)cc1 [Methotrexate] |  |  |  |  |  |  |  |  |  |  |  |  |  |  |  |  | Cmax ([1]; 12 g/m^2 infusion): 1.5 µM; Duration of action [1]: >12 h
COc1cc(Cc2cnc(N)nc2N)cc(OC)c1OC [Trimethoprim] |  |  |  |  |  |  |  |  |  |  |  |  |  |  |  |  | Cmax ([1]; IV, approved dose IV 20 mg/kg/6 hr): 25 µM; Cmax ([1]; PO, approved dose PO up to 20 mg/kg/day): 1 µM; Duration of action [1]: 2 to 72 h
OT-RLuc-004: DD regulated Renilla luciferase (protein) MISLIAALAVDYVIGMENAMPWNLPADLAWFKRNTLNKPVIMGRHTWESIGRPLPGRKNIILSSQPGTDDRVTWVKSVDEAIAACGDVPEIMVIGGGRVIEQFLPKAQKLYLTHIDAEVEGDTHFPDYEPDDWESVFSEFHDADAQNSHSYCFEILERRSGTSKVYDPEQRKRMITGPQWWARCKQMNVLDSFINYYDSEKHAENAVIFLHGNAASSYLWRHVVPHIEPVARCIIPDLIGMGKSGKSGNGSYRLLDHYKYLTAWFELLNLPKKIIFVGHDWGACLAFHYSYEHQDKIKAIVHAESVVDVIESWDEWPDIEEDIALIKSEEGEKMVLENNFFVETMLPSKIMRKLEPEEFAAYLEPFKEKGEVRRPTLSWPREIPLVKGGKPDVVQIVRNYNAYLRASDDLPKMFIESDPGFFSNAIVEGAKKFPNTEFVKVKGLHFSQEDAPDEMGKYIKSFVERVLKNEQ | modest stabilization of Renilla luciferase in the presence of their corresponding ligand |  |  |  |  |  |  |  |  |  |  |  |  |  |  |  | 
OT-RLuc-005: DD regulated Renilla luciferase (protein) MTSKVYDPEQRKRMITGPQWWARCKQMNVLDSFINYYDSEKHAENAVIFLHGNAASSYLWRHVVPHIEPVARCIIPDLIGMGKSGKSGNGSYRLLDHYKYLTAWFELLNLPKKIIFVGHDWGACLAFHYSYEHQDKIKAIVHAESVVDVIESWDEWPDIEEDIALIKSEEGEKMVLENNFFVETMLPSKIMRKLEPEEFAAYLEPFKEKGEVRRPTLSWPREIPLVKGGKPDVVQIVRNYNAYLRASDDLPKMFIESDPGFFSNAIVEGAKKFPNTEFVKVKGLHFSQEDAPDEMGKYIKSFVERVLKNEQSGGVQVETISPGDGRTFPKRGQTCVVHYTGMLGDGKKVDSSRDRNKPFKFMLGKQEVIRGWEEGVAQMSVGQGAKLTISPDYAYGATGHPGIIPPHATLVFDVELLELE | modest stabilization of Renilla luciferase in the presence of their corresponding ligand |  |  |  |  |  |  |  |  |  |  |  |  |  |  |  | 
OT-RLuc-006: DD regulated Renilla luciferase (protein) MTSKVYDPEQRKRMITGPQWWARCKQMNVLDSFINYYDSEKHAENAVIFLHGNAASSYLWRHVVPHIEPVARCIIPDLIGMGKSGKSGNGSYRLLDHYKYLTAWFELLNLPKKIIFVGHDWGACLAFHYSYEHQDKIKAIVHAESVVDVIESWDEWPDIEEDIALIKSEEGEKMVLENNFFVETMLPSKIMRKLEPEEFAAYLEPFKEKGEVRRPTLSWPREIPLVKGGKPDVVQIVRNYNAYLRASDDLPKMFIESDPGFFSNAIVEGAKKFPNTEFVKVKGLHFSQEDAPDEMGKYIKSFVERVLKNEQSGISLIAALAVDYVIGMENAMPWNLPADLAWFKRNTLNKPVIMGRHTWESIGRPLPGRKNIILSSQPGTDDRVTWVKSVDEAIAACGDVPEIMVIGGGRVIEQFLPKAQKLYLTHIDAEVEGDTHFPDYEPDDWESVFSEFHDADAQNSHSYCFEILERR | modest stabilization of Renilla luciferase in the presence of their corresponding ligand |  |  |  |  |  |  |  |  |  |  |  |  |  |  |  | 
OT-RLuc-001: constitutive Renilla luciferase construct (protein, listed as Renilla reniformis) MTSKVYDPEQRKRMITGPQWWARCKQMNVLDSFINYYDSEKHAENAVIFLHGNAASSYLWRHVVPHIEPVARCIIPDLIGMGKSGKSGNGSYRLLDHYKYLTAWFELLNLPKKIIFVGHDWGACLAFHYSYEHQDKIKAIVHAESVVDVIESWDEWPDIEEDIALIKSEEGEKMVLENNFFVETMLPSKIMRKLEPEEFAAYLEPFKEKGEVRRPTLSWPREIPLVKGGKPDVVQIVRNYNAYLRASDDLPKMFIESDPGFFSNAIVEGAKKFPNTEFVKVKGLHFSQEDAPDEMGKYIKSFVERVLKNEQ | expression of Renilla luciferase both in the presence and absence of ligand |  |  |  |  |  |  |  |  |  |  |  |  |  |  |  | Luciferase activity (FIG. 59B) (HCT-116 cells): high luciferase activity both in the presence and absence of ligand
OT-DHFRC-029: combination mutant hDHFR (I17V, Y122I) (protein, UniProt P00374 1-187, looked up, variant I17V Y122I) Dihydrofolate reductase: MVGSLNCIVAVSQNMGVGKNGDLPWPPLRNEFRYFQRMTTTSSVEGKQNLVIMGKKTWFSIPEKNRPLKGRINLVLSRELKEPPQGAHFLSRSLDDALKLTEQPELANKVDMVWIVGGSSVIKEAMNHPGHLKLFVTRIMQDFESDTFFPEIDLEKYKLLPEYPGVLSDVQEEKGIKYKFEVYEKND |  | 3041 | 52.17 | 158659 | 37.93 | 115339 | 21.76 | 66170 | 7.71 | 23454 | 2.29 | 6966 | 1.43 | 4355 | 1.13 | 3439 | 
OT-hDHFRC-030: combination mutant hDHFR (Y122I, M140I) (protein, UniProt P00374 1-187, looked up, variant Y122I M140I) Dihydrofolate reductase: MVGSLNCIVAVSQNMGIGKNGDLPWPPLRNEFRYFQRMTTTSSVEGKQNLVIMGKKTWFSIPEKNRPLKGRINLVLSRELKEPPQGAHFLSRSLDDALKLTEQPELANKVDMVWIVGGSSVIKEAMNHPGHLKLFVTRIIQDFESDTFFPEIDLEKYKLLPEYPGVLSDVQEEKGIKYKFEVYEKND |  | 2539 | 26.28 | 66732 | 8.23 | 20890 | 2.62 | 6641 | 1.38 | 3494 | 1.09 | 2766 | 1.03 | 2618 | 1.04 | 2643 | 
OT-hDHFRC-031: combination mutant hDHFR (N127Y, Y122I) (protein, UniProt P00374 1-187, looked up, variant N127Y Y122I) Dihydrofolate reductase: MVGSLNCIVAVSQNMGIGKNGDLPWPPLRNEFRYFQRMTTTSSVEGKQNLVIMGKKTWFSIPEKNRPLKGRINLVLSRELKEPPQGAHFLSRSLDDALKLTEQPELANKVDMVWIVGGSSVIKEAMYHPGHLKLFVTRIMQDFESDTFFPEIDLEKYKLLPEYPGVLSDVQEEKGIKYKFEVYEKND |  | 2565 | 56.59 | 145144 | 38.52 | 98805 | 20.77 | 53282 | 6.14 | 15743 | 2.17 | 5576 | 1.30 | 3345 | 1.14 | 2922 | 
OT-hDHFRC-032: combination mutant hDHFR (Y122I, H131R, E144G) (protein, UniProt P00374 1-187, looked up, variant Y122I H131R E144G) Dihydrofolate reductase: MVGSLNCIVAVSQNMGIGKNGDLPWPPLRNEFRYFQRMTTTSSVEGKQNLVIMGKKTWFSIPEKNRPLKGRINLVLSRELKEPPQGAHFLSRSLDDALKLTEQPELANKVDMVWIVGGSSVIKEAMNHPGRLKLFVTRIMQDFGSDTFFPEIDLEKYKLLPEYPGVLSDVQEEKGIKYKFEVYEKND |  | 2627 | 18.99 | 49891 | 4.66 | 12247 | 1.94 | 5092 | 1.24 | 3246 | 1.08 | 2826 | 1.03 | 2694 | 1.03 | 2704 | 
